Results reported in publication PMC9174231.
pKd: −log10 of the molar value.

Biological target: HA-tagged DDX6 (designed around the RecA2 region) (UniProt P26196)
Experiment: grating-coupled interferometry (GCI); Creoptix WAVEsystem; DDX6 protein immobilised on the sensor chip by amine coupling, 4E-T protein as analyte; PBS/0.01% Tween20; regeneration-free kinetics; blank without DDX6 as reference

Sequence of UniProt P26196 (P26196 whole entry): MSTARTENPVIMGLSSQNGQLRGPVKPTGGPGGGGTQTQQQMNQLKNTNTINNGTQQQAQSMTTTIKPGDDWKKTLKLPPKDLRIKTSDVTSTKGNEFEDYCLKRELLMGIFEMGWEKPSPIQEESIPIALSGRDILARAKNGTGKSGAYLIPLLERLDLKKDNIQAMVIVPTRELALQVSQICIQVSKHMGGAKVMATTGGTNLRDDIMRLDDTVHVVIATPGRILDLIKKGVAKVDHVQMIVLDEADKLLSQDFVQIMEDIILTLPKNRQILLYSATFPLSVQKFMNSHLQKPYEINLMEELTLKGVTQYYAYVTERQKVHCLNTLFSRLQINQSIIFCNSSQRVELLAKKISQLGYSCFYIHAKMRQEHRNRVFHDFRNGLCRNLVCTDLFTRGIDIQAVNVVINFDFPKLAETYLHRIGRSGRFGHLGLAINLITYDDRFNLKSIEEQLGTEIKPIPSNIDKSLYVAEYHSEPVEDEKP

pKd: 6.11
koff: 0.000278 s⁻¹
kon: 359 M⁻¹ s⁻¹
Substance: HA-tagged 4E-T (designed around the CHD region) (from UniProt Q9NRA8 1-985) (domain or fragment)
